According to a protein production outcome set (Wang et al. 2014):

Assay: label from the status in PepcDB records

**Q.** With “MAFTPFPPRQPTASARLPLTLMTLDDWALATITGADSEKYMQGQVTADVSQMAEDQHLLAAHCDAKGKMWSNLRLFRDGDGFAWIERRSVREPQLTELKKYAVFSKVTIAPDDERVLLGVAGFQARAALANLFSELPSKEKQVVKEGATTLLWFEHPAERFLIVTDEATANMLTDKLRGEAELNNSQQWLALNIEAGFPVIDAANSGQFIPQATNLQALGGISFKKGCYTGQEMVARAKFRGANKRALWLLAGSASRLPEAGEDLELKMGENWRRTGTVLAAVKLEDGQVVVQVVMNNDMEPDSIFRVRDDANTLHIEPLPYSLEE” as the sequence, how does the protein production read?
**A.** not failed

**Q.** With “MAFVRYIPCRKIPRNVDQFELPCLGSLRAFFSTQKLIGDEPVLVRDFIHTALYDPIQGYFSQRSKSVGVLERSIKFNQLEGRKAYMKLLEKVYKQSDISWFTPVELFKPWYAHGIAEAILRTTNLSVPLKGVLDYIMLNAPERIYKNMSYTSIEISPSLAKIQKETVAQVGSHLSKFRVECRDASDLAGWSKVLFVQHKADSGFQFPVAMLEFENVEQQPCWVIMLEVLDNLPHDLVYSKSQLSPWMEVLVENKPESEALSELYKPLEDPLIKRCIEIVEHEDDPKLLEVLHAKLPKMSLIASDFSFLPDVKVPGERAPLVSTKKDGCSSDYSSYLDAKGDADIFFPTDFWLLERMDHYCSGWRKMEKDGTPSKKGRKRRTLTVNQDSL” as the sequence, how does the protein production read?
**A.** failed

**Q.** For “MAGAMIEARGLVKRFVSGRIRRRVVEALKGVSFSVYEGEIYSFLGPNGAGKTTTVRILSTLLDPDGGEARVAGFDVVKERWEVRKRIGVMLSVERGFYWKLTGRENLYYFGRIYGIPQGELKSRIKEVLDLVGLTDLGGADKPFEEMSLGMKARLGLARVLLKDPEVLILDEPTLGLDPASARTIRGVIRSLASEGRTIFITTHNMVEAEMISDRVGIIIGGRIAMEGTPDELKRRVFSSINLEFRVKASGHAAKKFFYDVKGEYGNRIVGGVTFSDGILTFRVSVNRDEPAEPIIDRITRLAYQYRFKILEIKALEPSLEDVFVAVSESGEARSGRVKGSIAQRLEHHHHHH”, which protein production is on record?
**A.** not failed

**Q.** For “MAGEQIKPVASGLLVLNFCMYVIVLGIGGWAMNRAIDHGFEVGPNLELPAHFSPIYFPMGNAATGFFVIFALLAGVVGAASTISGLSHIRSWTVGSLPAAATAATIAWTLTVLAMGFAWKEIELQGRNAKLRTMEAFLIILSVTQLIYIAAVHGVRRP”, which protein production is on record?
**A.** failed

**Q.** For “MAGFISNFFGVGDSDSQYEEPTEASQAAAPTESATNTRSTPKVVPMQGGKSVNSKIALFEPKIYSDVKEIATQLLKNQAVIINFDHVDDEMARRIVDFLTGTVFAINGEIERIGDEIFLCIPENYEVSGSTTSQFDTSKLLEHHHHHH”, which protein production is on record?
**A.** not failed

**Q.** With “MAGFPELVVLDPPWDKELAAGTESQALVSATPREDFRVRCTSKRAVTEMLQLCGRFVQKLGDALPEEIREPALRDAQWTFESAVQENISINGQAWQEASDNCFMDSDIKVLEDQFDEIIVDIATKRKQYPRKILECVIKTIKAKQEILKQYHPVVHPLDLKYDPDPAPHMENLKCRGETVAKEISEAMKSLPALIEQGEGFSQVLRMQPVIHLQRIHQEVFSSCHRKPDAKPENFITQIETTPTETASRKTSDVVLKRKQTKDCPQRKWYPLRPKKINLDT” as the sequence, how does the protein production read?
**A.** failed

**Q.** For “MAGFSSLIPRTLLKRAVSSATRNLTAPLASISAARNLFIGGGCDENYGEPGVFSHSNGIRKYNTVGNAGALTGPFHHLLGVNQTNKPAFLRVQSMSYQFVADSHSSPKRIVKNEDEEDFSDSSKKGNAENPRKHQIGENIPKKDKIKFLVNTLLDIEDNKEAVYGALDAWVAWERNFPIASLKIVIASLEKEHQWHRMVQVIKWILSKGQGNTMGTYGQLIRALDMDRRAEEAHVIWRKKVGNDLHSVPWQLCLQMMRIYFRNNMLQELVKLFKDLESYDRKPPDKHIVQTVADAYELLGMLDEKERVVTKYSHLLLGTPSDDKPSRSSRKKKKPELRIPEATTEGAVDAAKAEIQEERKENLDNHQESEAATEKQFEHGA”, which protein production is on record?
**A.** failed

**Q.** For “MAGGVDGPIGIPFPDHSSDILSGLNEQRTQGLLCDVVILVEGREFPTHRSVLAACSQYFKKLFTSGAVVDQQNVYEIDFVSAEALTALMDFAYTATLTVSTANVGDILSAARLLEIPAVSHVCADLLDRQIL”, which protein production is on record?
**A.** failed

**Q.** For “MAGHSHWAQIKHKKAKVDAQRGKLFSKLIREIIVATRLGGPNPEFNPRLRTAIEQAKKANMPWENIERAIKKGAGELEGEQFEEVIYEGYAPGGVAVMVLATTDNRNRTTSEVRHVFTKHGGNLGASGCVSYLFERKGYIEVPAKEVSEEELLEKAIEVGAEDVQPGEEVHIIYTVPEELYEVKENLEKLGVPIEKAQITWKPISTVQINDEETAQKVIKLLNALEELDDVQQVIANFEIPEEILQKVG”, which protein production is on record?
**A.** not failed

**Q.** With “MAGIKVFGHPASTSTRRVLIALHEKNLDFELVHVELKDGEHKKEPFLSRNPFGQVPAFEDGDLKLFESRAITQYIAHRYENQGTNLLPADSKNIAQYAIMSIGIQVEAHQFDPVASKLAWEQVFKFNYGLNTDQAVVAEEEAKLAKVLDVYEARLKEFKYLAGETFTLTDLHHIPVIQYLLGTPTKKLFTERPRVNEWVAEITKRPASEKVL” as the sequence, how does the protein production read?
**A.** failed

**Q.** With “MAGQSDRKAALLDQVARVGKALANGRRLQILDLLAQGERAVEAIATATGMNLTTASANLQALKSGGLVEARREGTRQYYRIAGEDVARLFALVQVVADEHLADVAVAAADVLGSPEDAITRAELLRRREAGEVTLVDVRPHEEYQAGHIPGAINIPIAELADRLAELAGDRDIVAYCRGAYCVMAPDAVRIARDAGREVKRLDDGMLEWRLAGLPVDEGAPVGHGD” as the sequence, how does the protein production read?
**A.** failed

**Q.** Which protein production does the source give for “MAGRRRWSTEQILDAAAELLLAGDAETFSVRKLAASLGTDSSSLYRHFRNKTELLRAVADRILLSAMDGYRPEGDWKQRLTAVALRLRESFGQQPQLAAVWGRHGSGGTGSRLMMEEVLQALRASGLPDDEIPARYHRLVILISSLITAEGGFGAVGAQEHEQGMEQFRVAVLGADPERFPALSHFAREIRPLGADRGAAFEEILAAHLAHLEAAAP” here?
**A.** not failed

**Q.** With “MAGTTQGAKTLYDKLWDDHLVSQRDDGSCLIYIDRHLLHEVTSPQAFEGLQLAGRQPWRLNANIATPDHNVPTSKKEREQGIAGIEDDTSRIQVQTLDDNCKTFNIVEFGINDIRQGIVHVVGPEQGLTLPGMTVVCGDSHTATHGAFGCLAHGIGTSEVEHVLATQCLIQKKSKNMLIRVDGQLGKGVTPKDVVLAIIGKIGTAGGTGYAIEFGGQVFRDMSIEGRMTVCNMAIEAGARVGMVAVDDKTIEYVQSRHYAPKGEQWDQAVAYWNTLHSDDDAVFDEVVVLNGAEIEPQVSWGTSPEMVIPVSQAVPTLEQAKDDVQRNDWTRAYQYMGLTAGQALADIQLDRVFIGSCTNSRIEDIRAAAEVVKGRKVASSIKQAMIVPGSGLVKQQAEQEGLDQVFLEAGFEWREPGCSMCLAMNSDKLQPGEHCASTSNRNFEGRQGNGGRTHLVSPAMAAAAAIAGHFVDVRSF” as the sequence, how does the protein production read?
**A.** failed

**Q.** With “MAGVCGSKLMMARLVGMPDLFSDSGWGSGELPRALRPGLVHLPRWMGLDQQFAVVQQCREIARSVAGTPLAMHRQQWASGTMSAYLMSLGLHWEYRTYQYVSQWGGVAVPPIPVEFSALAHEVLRAAAGVDDSLAAWVDSYRIDAALVNYYPPGAGMGMHQDAFEDSRAPVVSLSIGDSAVFRAGNGVNRQRPWQDVVLGSGDAVVFGGPSRDMFHSVVRLHAGTAPTRCGVSQGRINLTFRQVKL” as the sequence, how does the protein production read?
**A.** failed

**Q.** With “MAGYKPVAIQTYPVLGEKITQDTLYWNNYKTPVQIKEFGAVSKVDFSPQLPYNYAVTASSRIHIYGRYSQEPVKTFSRFKDTAYCATFRQDGQLLVAGSEDGVVQLFDINGRAPLRQFEGHTKAVHTVDFTADNYHVVSGADDYTVKLWDIPNSKEILTFKEHSDYVRCGCASKLNPDLFVTGSYDHTVKIFDARTNKNVLCVEHGQPVESVLLFPSGGLLVSAGGRYVKVWDMLKGGQLLVSLKNHHKTVTCLCLSSSGQRLLSGSLDRKVKVYSTTSYKVVHSFDYAASILSLALSHQDETIVVGMTNGILSVKHRKSEAKKTSLPRRRRPAYRTFIKGKNYLKQRDDIMVSRPAKKHLEGYDKDLKSFRVSQALDRVLEPKCVIRTPEVTVSIIKELTRRGVLANALAGRDEKEVTRVLNFLIRNLSQPRFAPVLINAAEIIIDIYLPVIGQSSVVDKKFIVLQELVEKEIDYQRELLETLGMMDMLFATMTRNDSDPVPEHVPAELPEEKTESPTQPSDTDKNS” as the sequence, how does the protein production read?
**A.** failed

**Q.** For “MAHACVSTSASSLRFTAGFVSASPNGSSFDSPKLSLPFEPLRSRKTNKLVSDRKNWKNSTPKAVYSGNLWTPEIPSPQGVWSIRDDLQVPSSPYFPAYAQGQGPPPMVQERFQSIISQLFQYRIIRCGGAVDDDMANIIVAQLLYLDAVDPTKDIVMYVNSPGGSVTAGMAIFDTMRHIRPDVSTVCVGLAASMGAFLLSAGTKGKRYSLPNSRIMIHQPLGGAQGGQTDIDIQANEMLHHKANLNGYLAYHTGQSLEKINQDTDRDFFMSAKEAKEYGLIDGVIMNPLKALQPLAAA”, which protein production is on record?
**A.** failed

**Q.** For “MAHGVNIYNVYSISIIALLASSFLLYAQEAKGLENAMLFLSIIFPYAFYLNGHILLYLVLPAYLIVTSSVTFHYYIYELIPTLIYYFGILPKFINYNVRLMTILWES”, which protein production is on record?
**A.** failed

**Q.** For “MAHHHHHHMGGPPTIEELKREKIIPHVFPDENVDLTVDMYISFKSGKEVNHGNILDLAGTGSVPRNIKFSEEPPEDYCYILFMIDPDFPSRRRPDGRDYVHWAVSGIKSKELVKGTDKNCITLLPYVGPSIKKGTGLHRISFILSLVKEENKGNVTGVPLYRGEHYITRVKFNNCQSAYNVIQMNDMKIVGFNWCQIEA”, which protein production is on record?
**A.** not failed

**Q.** Which protein production does the source give for “MAHPFLRTIFEVVITLYMLHNLYKVLGDDEMDLEEMSSFFNKRVNEYEEHMMNNVGGANQYYIETAKLIPRGKEINILDLGCGTGLELDEIFKINNTVRVTGIDLAENMLRKIKEKHKDKLDRLTLIVGDYFSCDIGEKVFDAALSVETLHHFNHEQKIKLYKKIVRSLKDNGVYIEADYMAPNQDYEDHCFNENKRIRLELGIKDGFYHYDTPCTVENQIKMLYKSGFKSVEKVFKAENTVILLAKK” here?
**A.** failed

**Q.** For “MAHYKAADSKREQFRRYLEKSGVLDTLTKVLVALYEEPEKPNSALDFLKHHLGAATPENPEIELLRLELAEMKEKYEAIVEENKKLKAKLAQYEPPQEEKRAE”, which protein production is on record?
**A.** not failed

**Q.** With “MAIDAFALILAMLGLGLLFARLRVLPDNSADVLNRIVLYICLPASVLTYVPRLHLDASLGGVIATPWLLTAIIVPLLWGCSRLLRFGRAEYAALLMCVVFTNSSFIGFPMVRALIGDHALPYAVVYDQFGTFVLLSTFGLYVLARYSGDTPPTARLIVMRVLQFPPLWALLFALTLMPGQPPAWIGSGLKNLADAMLPLVMLSVGFSLQLRLPADELKPLAVGLVFKLLLMPVLALPLSWVLGLRGQMLQTNVLESAMPTMITAAALAISHRLAPRLAAAMVGYSILLSLLTLPAWAWLLARLVA” as the sequence, how does the protein production read?
**A.** failed

**Q.** Which protein production does the source give for “MAIERIQLHTHGDDRGLLISLEQQRNVPFEIRRVYYLFGTRHDVHRGQHAHRQLNQFAVALHGSVTILLDEGNGNGPSEVVLDDPSQGLLLGRMVWRDLYRFSADCVLMVLADQPYDPGDYILDYDQFVSEVRNGTALQARRLEA” here?
**A.** failed

**Q.** For “MAIIPGVEQKPMSSNLESRIDQGTGREPADMVLKGGRFFDLVTGELVASDIAICGDTVVGTCGDYKGRHEIDISGKIVVPGFIDTHLHIESSLVTPHEFDRCVLPYGVTTAICDPHEIANVLGAEGLQFFLDSAMETIMDIRVQLSSCVPATHLETSGADLPIEKLLPFRNHPKVIGLAEFMNFPGVIHKDPVCMAKLEAFQGQHIDGHAPLLSGAALNGYLAAGIRTEHECTSAAEALEKIRKGMHILVREGSVSKDLHALMPIITERLSPYLALCTDDRNPLDIAEQGHLDYMIRTAIASGVEPLAIYRAASISAAKAFGLRDRGLVAPGWRADLVVIDTLQNCKASMVLSGGRLVDDALFATRKPVAPVGLDSVKARPVLASHFGVPVTEGETPVMGVLPGKIITEHRRYKLPTDGNQTTVDLENDIIKVAVIERHGKNGNHANGFVQGFGLKKGAIASTVGHDSHNICVVGVSEDDMALAANRLGDIKGGFVVVEDGRVTGEIALPVAGLMSLEPYETVRDTLHTLRKAAYALGTTLEEPFLQVAFLPLPVIPHLKISDMGMVDVDRFALI”, which protein production is on record?
**A.** failed
